# Measurements: IntAct's records for PubMed 26068852
# B1: TRAF-interacting protein with FHA domain-containing protein A (Homo sapiens), Q96CG3 (parent)
# chain: MTSFEDADTEETVTCLQMTVYHPGQLQCGIFQSISFNREKLPSSEVVKFGRNSNICHYTFQDKQVSRVQFSLQLFKKFNSSVLSFEIKNMSKKTNLIVDSRELGYLNKMDLPYRCMVRFGEYQFLMEKEDGESLEFFETQFILSPRSLLQENNWPPHRPIPEYGTYSLCSSQSSSPTEMDENES
# partner: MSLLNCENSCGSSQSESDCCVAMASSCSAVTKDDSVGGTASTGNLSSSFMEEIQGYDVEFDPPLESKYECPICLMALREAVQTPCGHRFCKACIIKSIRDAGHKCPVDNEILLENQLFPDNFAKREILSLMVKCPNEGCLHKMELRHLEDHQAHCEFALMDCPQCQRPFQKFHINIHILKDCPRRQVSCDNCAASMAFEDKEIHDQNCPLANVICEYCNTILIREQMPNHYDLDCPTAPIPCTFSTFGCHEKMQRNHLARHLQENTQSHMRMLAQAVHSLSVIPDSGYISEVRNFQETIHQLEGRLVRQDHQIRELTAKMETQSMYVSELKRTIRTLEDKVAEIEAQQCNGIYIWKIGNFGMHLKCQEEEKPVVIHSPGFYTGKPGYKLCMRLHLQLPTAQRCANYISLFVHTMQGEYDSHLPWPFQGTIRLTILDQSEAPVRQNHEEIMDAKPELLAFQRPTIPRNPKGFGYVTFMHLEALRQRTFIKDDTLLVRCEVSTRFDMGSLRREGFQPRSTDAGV
# Variants of: B1
# Details: with traf6_human TRAF6, Q9Y4K3
row,Variant,effect of a mutation on the interaction
1,MTSFEDADAEETVTCLQMTVYHPGQLQCGIFQSISFNREKLPSSEVVKFGRNSNICHYTFQDKQVSRVQFSLQLFKKFNSSVLSFEIKNMSKKTNLIVDSRELGYLNKMDLPYRCMVRFGEYQFLMEKEDGESLEFFETQFILSPRSLLQENNWPPHRPIPEYGTYSLCSSQSSSPTEMDENES,disrupting interaction strength
2,MTSFEDADTEETVTCLQMTVYHPGQLQCGIFQSISFNREKLPSSEVVKFERNSNICHYTFQDKQVARVQFSLQLFKKFNSSVLSFEIKNMSKKTNLIVDSRELGYLNKMDLPYRCMVRFGEYQFLMEKEDGESLEFFETQFILSPRSLLQENNWPPHRPIPEYGTYSLCSSQSSSPTEMDENES,disrupting interaction strength
3,MTSFEDADTEETVTCLQMTVYHPGQLQCGIFQSISFNREKLPSSEVVKFGRNSNICHYTFQDKQVSRVQFSLQLFKKFNSSVLSFEIKNMSKKTNLIVDSRELGYLNKMDLPYRCMVRFGEYQFLMEKEDGESLEFFETQFILSPRSLLQENNWPPHRPIPEYGTYSLCSSQSSSPTAMDENES,disrupting interaction strength
